Experimental data as given in paper PMC10364586.
pKd: −log10 of the molar value.

Target: PADI4 (peptidyl-arginine deiminase 4), recombinant, dimeric (human) (UniProt Q9UM07)
Test: BLI

Sequence of PADI4 (peptidyl-arginine deiminase 4), recombinant, dimeric (human) (Q9UM07 whole entry): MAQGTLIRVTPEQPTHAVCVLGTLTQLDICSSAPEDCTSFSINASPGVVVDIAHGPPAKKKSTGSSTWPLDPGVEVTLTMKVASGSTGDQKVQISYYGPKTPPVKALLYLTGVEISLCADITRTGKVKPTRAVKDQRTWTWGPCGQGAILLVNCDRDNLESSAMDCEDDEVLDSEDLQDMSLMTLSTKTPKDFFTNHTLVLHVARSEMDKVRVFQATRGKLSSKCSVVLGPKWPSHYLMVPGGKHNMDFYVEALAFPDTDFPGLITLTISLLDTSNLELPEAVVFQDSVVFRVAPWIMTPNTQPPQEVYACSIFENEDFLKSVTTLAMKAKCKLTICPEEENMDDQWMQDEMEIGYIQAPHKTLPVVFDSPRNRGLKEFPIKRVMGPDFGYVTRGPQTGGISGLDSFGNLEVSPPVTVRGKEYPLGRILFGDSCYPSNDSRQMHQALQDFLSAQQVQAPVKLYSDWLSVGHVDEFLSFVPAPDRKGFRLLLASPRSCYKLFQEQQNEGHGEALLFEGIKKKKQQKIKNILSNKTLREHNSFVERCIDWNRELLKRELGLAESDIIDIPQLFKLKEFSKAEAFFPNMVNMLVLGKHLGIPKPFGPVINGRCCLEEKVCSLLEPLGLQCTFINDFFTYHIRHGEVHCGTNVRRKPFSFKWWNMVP

pKd: 5.70
koff: 0.3 s⁻¹
kon: 170000 M⁻¹ s⁻¹
Substance: N-MDM2 derived from GST-tagged N-MDM2, GST-tag removed with thrombin (domain or fragment)
